This is an account of results in the supplement of paper PMC10567573.

The series in a line: protein stability index of a GFP-peptide fusion (GPS, HEK-293T) (PSI 1-6); higher = more stable.
The mark [1] stands for this setting: treatment: DMSO, c terminus: a fixed tail appended.
Setting [2] is: treatment: MLN4924 1 uM, 8 h, c terminus: a fixed tail appended.

± gives the standard deviation.
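Also: 24-mer peptide tiles fused after GFP, lentivirally expressed, FACS-sorted into six equal bins by GFP/DsRed ratio, decoded by Illumina sequencing, PSI is the read-weighted mean bin number.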

As to EIEQLLARLTGVNDKMAEYTNSAG [GOSR1], the protein stability index turned out to be 2.29 ± 0.24 under setting [1] and 2.46 ± 0.45 under setting [2].

As for EIETWVREHCPENRERVVSLIEDL [ZNF449], the protein stability index under setting [1] was determined as 3.9 ± 0.2 and the protein stability index under setting [2] was 4.01 ± 0.29.

Regarding EIFRQRFRQFGYQDSPGPREAVSQ [ZNF24], the protein stability index by setting is: under setting [1], 2.7 ± 0.21; under setting [2], 3.25 ± 0.082.

For the sequence EIILYWKHSTIFDVGENLTVPDEF [SLC25A25], the protein stability index amounted to 2.23 ± 0.85 under setting [1] and 2.1 ± 0.39 under setting [2].

As for EILPFLYLGSAYHASKCEFLANLH [DUSP5], the protein stability index under setting [1] amounted to 2.94 ± 0.5 and the protein stability index under setting [2] was determined as 2.92 ± 0.75.

Take EILTLLQGVHQGAGFQDIPKRCLK [TSN]: the protein stability index under setting [1] was 2.08 ± 0.3 and the protein stability index under setting [2] stood at 2.41 ± 0.49.

EIPDQNIDVEALQVAFGSLYRDDV [GMCL1]: the protein stability index was 4.58 ± 0.32 under setting [1] and 4.64 ± 0.094 under setting [2].

As to EIRMWQTREKAKFSDGEKCRREAF [PHTF1], the protein stability index by setting is: under setting [1], 2.98 ± 0.14; under setting [2], 3.1 ± 0.31.

With EKERRKKQQWEIMHKHNETSQKIA [RSPH3], the protein stability index turned out to be 4.44 ± 0.42 under setting [1] and 4.91 ± 0.26 under setting [2].

As to EKLCSISLSHINAYACLVCGKYFQ [USP39], the protein stability index by setting is: under setting [1], 2.67 ± 0.56; under setting [2], 2.61 ± 0.58.

Regarding EKMKKRKMSNSFHGIRPPQLEQPE [RHOBTB3], the protein stability index was 4.65 ± 0.12 under setting [1] and 4.77 ± 0.14 under setting [2].

Regarding ELAELEDALRNLKCGSGARGGDGE [TRADD], the protein stability index was 4.7 ± 0.39 under setting [1] and 4.66 ± 0.07 under setting [2].

As for ELEGLIADPDEMRMQALLIRERIL [FEM1C], the protein stability index by setting is: under setting [1], 2.54 ± 0.48; under setting [2], 2.65 ± 0.43.

Sequence ELERLIDKAMKKDGLVGMAIVGGM [FIS1] showed a protein stability index under setting [1] of 2 ± 0.29 and a protein stability index under setting [2] of 2.46 ± 0.37.

ELKTFRLKTRSWAGERSRRELCSR [CDC25B] gave a protein stability index under setting [1] of 3.07 ± 0.099 and a protein stability index under setting [2] of 3.44 ± 0.56.

On to ELSSLGSDSEANGFAERRIDKFGF [TBC1D10A], for which the protein stability index stood at 3.82 ± 0.2 under setting [1] and 3.83 ± 0.15 under setting [2].

ELVLEQQLDREAQARHQLVLTAVD [PCDHGC5]: the protein stability index by setting is: under setting [1], 3.99 ± 0.15; under setting [2], 4.103 ± 0.038.

As to EMEEGVKESLCAKEEKCQGKGDDS [KCNA4], the protein stability index was determined as 5.62 ± 0.19 under setting [1] and 5.57 ± 0.33 under setting [2].

As for EMPTQPGKPLIPPMNRRNILVMKH [NETO1], the protein stability index by setting is: under setting [1], 3.21 ± 0.045; under setting [2], 3.27 ± 0.24.

For EMYQVSRLQHICELFIITQLQSMP [RHOBTB3], the protein stability index amounted to 2.21 ± 0.23 under setting [1] and 2.16 ± 0.44 under setting [2].

On to ENGYGFHLNAIRGLPGSFIKEVQK [PDZK1], for which the protein stability index is, setting by setting: under setting [1], 2.62 ± 0.18; under setting [2], 2.97 ± 0.43.

Take ENRLSVFFSVIFMTVGILSNSLAI [PTGFR]: the protein stability index by setting is: under setting [1], 3.14 ± 0.25; under setting [2], 3.36 ± 0.17.

In the case of ENRTLQVLRAEHRGFQEENKALWE [CBY2], the protein stability index turned out to be 4.37 ± 0.37 under setting [1] and 4.38 ± 0.17 under setting [2].

Take ENTIAGANHTHTFYGHSHHSHHGH [C10orf62]: the protein stability index is, setting by setting: under setting [1], 3.58 ± 0.25; under setting [2], 3.78 ± 0.23.

As to EPHKCPECGKRFLRSSDLYRHQRL [ZNF449], the protein stability index reads like this: under setting [1], 3.96 ± 0.36; under setting [2], 4.39 ± 0.47.

Turning to EPIPFWTFLSRILTGLNYEAPKYH [NSDHL], the protein stability index is, setting by setting: under setting [1], 2.62 ± 0.23; under setting [2], 2.76 ± 0.42.

As for EQEIQFEDFTNTLRELGHAEHEIT [PKD2L1], the protein stability index by setting is: under setting [1], 5.16 ± 0.2; under setting [2], 5.17 ± 0.32.

Consider EQQRIIAILLDAHHKTYDPTYSDF [VDR], for which the protein stability index by setting is: under setting [1], 2.48 ± 0.37; under setting [2], 2.27 ± 0.15.

ERAKREMVMYSITVAFWLLNSWLW [MFF]: the protein stability index reads like this: under setting [1], 2.48 ± 0.48; under setting [2], 1.87 ± 0.39.

Regarding ERLAEAEKSQLIMQAEAEAASVRM [FLOT1], the protein stability index runs as follows: under setting [1], 4.84 ± 0.39; under setting [2], 4.66 ± 0.3.

Sequence ERLTKQEKRPLFLAPDFDRWLDES [HACD3] yielded a protein stability index under setting [1] of 3.87 ± 0.21 and a protein stability index under setting [2] of 3.93 ± 0.38.

For ERPYGCDECEKAYFYMSCLVKHKR [ZNF649], the protein stability index under setting [1] stood at 2.48 ± 0.16 and the protein stability index under setting [2] came to 2.81 ± 0.28.

Regarding ERTEESSAVQYFQFYGYLSQQQNM [CARM1], the protein stability index by setting is: under setting [1], 2.56 ± 0.25; under setting [2], 2.82 ± 0.52.

ESDDAFDTVTIPVPSEEPQESDQT [IQUB]: the protein stability index by setting is: under setting [1], 5.69 ± 0.24; under setting [2], 5.72 ± 0.3.

Turning to ESFLAWKKRKRQEKIDKLEQDMER [ZC3H15], the protein stability index reads like this: under setting [1], 3.8 ± 0.2; under setting [2], 4.22 ± 0.33.

With ESIAHIGDVMFTGTADGRVVKLEN [APMAP], the protein stability index turned out to be 4.11 ± 0.17 under setting [1] and 4.38 ± 0.19 under setting [2].

In the case of ESLSAIEAELEKVAHQLQALRRG [CHGA], the protein stability index is, setting by setting: (treatment: DMSO, c terminus: native) 3.19 ± 0.42; (treatment: MLN4924 1 uM, 8 h, c terminus: native) 3 ± 0.72.

ESTELMTHLEAQNRIKGCHDHLTL [PDLIM4]: the protein stability index stood at 3.83 ± 0.13 under setting [1] and 3.88 ± 0.15 under setting [2].

Consider ESTRELGELLGEARYYLVQGLIED [KCTD13], for which the protein stability index by setting is: under setting [1], 2.88 ± 0.19; under setting [2], 2.91 ± 0.31.

ESWDEEDKRNYPSLELDKMAHGYG [CHGB]: the protein stability index reads like this: under setting [1], 4.87 ± 0.1; under setting [2], 4.87 ± 0.14.

As for ESYPEDTVFYIPEDHKPGTFPKAL [DLC1], the protein stability index under setting [1] was 4.13 ± 0.31 and the protein stability index under setting [2] came out at 4.22 ± 0.21.

For the sequence ETCDLGKIKPEARRYLEKSIKMGK [NLN], the protein stability index came out at 4.09 ± 0.18 under setting [1] and 4.45 ± 0.23 under setting [2].

As for ETETLVTREAVTEILGIEPDREKG [TSN], the protein stability index turned out to be 5.5 ± 0.19 under setting [1] and 5.39 ± 0.33 under setting [2].

Sequence ETLLKVDLENRCQSLTEDLEFRKS [LMNB1] displayed a protein stability index under setting [1] of 4.42 ± 0.22 and a protein stability index under setting [2] of 4.43 ± 0.2.

As for ETVDLVLKLKNKLLQADREHLPVK [DENND6A], the protein stability index was 2.86 ± 0.41 under setting [1] and 2.72 ± 0.38 under setting [2].

For the sequence EVDAAPPVDLNKILEDMRCQYEAL [KRT36], the protein stability index turned out to be 4.59 ± 0.13 under setting [1] and 4.68 ± 0.096 under setting [2].

EVDSGRQIEYEYKLAQALHEMREQ [LMNB1]: the protein stability index runs as follows: under setting [1], 4.51 ± 0.23; under setting [2], 4.43 ± 0.23.

For EVKIEEPVSMEMDNHMSDKDESCY [INTS3], the protein stability index by setting is: under setting [1], 5.31 ± 0.37; under setting [2], 5.37 ± 0.19.

Turning to EVLSKALSQRTITVGVYEAAKLLN [GADD45A], the protein stability index is, setting by setting: under setting [1], 2.77 ± 0.45; under setting [2], 2.56 ± 0.53.

As for EVQDLLEGCELPDLPSSLLLPEDM [SMG5], the protein stability index is, setting by setting: under setting [1], 4.5 ± 0.13; under setting [2], 4.67 ± 0.2.

Regarding EVQGDQQAWFGFAGTPGYLSPEVL [CAMK2B], the protein stability index by setting is: under setting [1], 3.07 ± 0.35; under setting [2], 3.14 ± 0.21.

As to EVRSKAEEVVSFVKKNVLVTGGFF [FUNDC2], the protein stability index turned out to be 2.17 ± 0.37 under setting [1] and 2.25 ± 0.34 under setting [2].

Consider EVSQHIKMRMGGRVDFEEFVELIG [CABP4], for which the protein stability index is, setting by setting: under setting [1], 2.44 ± 0.12; under setting [2], 3 ± 0.44.

Consider EYSPEEESEPPAPNIRNMAPNSLS [TRAF3IP2], for which the protein stability index stood at 5.04 ± 0.36 under setting [1] and 5.07 ± 0.27 under setting [2].

For FADEKNILHIMVKVVKGHRPELPP [RIPK4], the protein stability index is, setting by setting: under setting [1], 2.3 ± 0.32; under setting [2], 2.36 ± 0.36.

FDECGITDDQLLALLPSLSHCSQL [PRAME]: the protein stability index is, setting by setting: under setting [1], 3.31 ± 0.15; under setting [2], 3.56 ± 0.19.

With FDTNAEGCILQWKKIYCRICMAQI [ZBED1], the protein stability index reads like this: under setting [1], 2.39 ± 0.65; under setting [2], 2.04 ± 0.079.

Turning to FEKSRYETYIHLLAMKIKVGSDDL [PSD2], the protein stability index is, setting by setting: under setting [1], 2.53 ± 1; under setting [2], 2.55 ± 0.61.

Turning to FEQLPDDVAISANIADIEEKRGFT [NCF4], the protein stability index came out at 5.03 ± 0.33 under setting [1] and 5.05 ± 0.21 under setting [2].

As to FEWTDSPNTAVSVHVSESSDDDEE [ACBD3], the protein stability index runs as follows: under setting [1], 5.53 ± 0.22; under setting [2], 5.56 ± 0.21.

Turning to FFCEGVKIIFRVGLVLLKHALGSP [TBC1D10A], the protein stability index worked out at 1.98 ± 0.54 under setting [1] and 2.11 ± 0.36 under setting [2].

In turn, FGHHHQRAWIPSENIQDITVNIHR [ZMYND11] gave a protein stability index under setting [1] of 2.78 ± 0.37 and a protein stability index under setting [2] of 2.69 ± 0.35.

As to FHGTRQYKFDPKTKRILTLQKANS [MMP1], the protein stability index was 2.38 ± 0.5 under setting [1] and 2.6 ± 0.54 under setting [2].

For the sequence FIMLLIGIVLPVFYLVYFKIQASG [LYSMD4], the protein stability index amounted to 2.31 ± 0.22 under setting [1] and 2.01 ± 0.54 under setting [2].

Consider FIPSSHNDRDFLTRIFTEDRFAQD [PPEF2], for which the protein stability index by setting is: under setting [1], 2.58 ± 0.81; under setting [2], 3.05 ± 0.64.

On to FKCNYCGKSFRQRPSLVIHLRIHT [ZNF449], for which the protein stability index was 3.15 ± 0.46 under setting [1] and 3.35 ± 0.24 under setting [2].

Take FKSLFGSIGDIESCKLVRDKITGQ [ELAVL3]: the protein stability index is 2.87 ± 0.38 under setting [1] and 2.56 ± 0.15 under setting [2].

On to FMRTDPVCQKLLLDAMNYHLMPFR [KLHL14], for which the protein stability index came out at 2.25 ± 0.19 under setting [1] and 2.28 ± 0.3 under setting [2].

Consider FPTDAPYPTTLGKDRECQSQSLAL [ZNF8], for which the protein stability index reads like this: under setting [1], 4.07 ± 0.15; under setting [2], 4.05 ± 0.31.

With FQIAANLSMERYALVFGVNTFIAL [SLC19A2], the protein stability index came to 3.2 ± 0.18 under setting [1] and 3.09 ± 0.17 under setting [2].

For FRCLFEAEITQIQSHISDMSVILS [KRT71], the protein stability index reads like this: under setting [1], 1.94 ± 0.14; under setting [2], 2.34 ± 0.37.

Take FSLKTFKRKSEVERAVKRMRHLST [MATN2]: the protein stability index runs as follows: under setting [1], 2.54 ± 0.51; under setting [2], 2.82 ± 0.46.
